Test results: the supplement of paper PMC9170038

System: K4 kissing-loop RNA reporter
Experiment: apparent KD of K4 kissing-loop reporter; higher = weaker reporter binding
Settings: Eterna round: R107
Method: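 RNA-MaP round R107: designed RNA switches with theophylline, tryptophan, arginine or FMN aptamers are transcribed on-chip within common flanks. They are titrated with a labelled K4 kissing-loop RNA reporter in RNA-MaP buffer (100 mM Tris pH 7.5, 80 mM KCl, 4 mM MgCl2), without ligand or with the indicated ligand. Median apparent KD per design.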

[1] = input ligand: theophylline 20 uM
[2] = input ligand: tryptophan 2.4 mM
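Also: bound reporter read as fluorescence of individual clusters on recovered sequencing chips by microscopy, with normalized cluster intensities fitted with a binding model.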

Sequence | apparent KD of K4 kissing-loop reporter (input ligand: FMN 200 uM) [nM] | apparent KD of K4 kissing-loop reporter (input ligand: arginine 13.2 mM) [nM] | apparent KD of K4 kissing-loop reporter (input ligand: none) [nM] | apparent KD of K4 kissing-loop reporter [1] [nM] | apparent KD of K4 kissing-loop reporter [2] [nM]
AAGGUUGUGCAUGGGAGUGAUGUUCCCAGGCAGGAUAUCGCUCACGCGAGAAGGGCUAGCACAACCGCUCAAGAAACUUGAGCAA [Omei KL FMN A SS C v4] | 117 | 97.1 | 113 | 116 | 94.5
AGAUUCGGCACGGCCGCCACUUCCGGUGGCUGGUGUCAUGGUGCGCGUGAGUGAUGUUUAUGUGGGAGGACCGGGUGUUGAGUCU [whbob_Ex_Tryp_B_w43] | 974 | 411 | 898 | 592 | 603
GGAUAGGACAGAGGAUAUCCAGUGAUGUUGGAGAAUUCUCCUUAAACAUGUCACAAAAGUGGCAUGGGAGAAGGCUGUCCUAUCG [Mod of Eli's FmnBX 29 v1] | 217 | 123 | 122 | 138 | 105
UUGGGCGAGGUAACGUGGAUAUCUCGUCGCAAGGAUAUCUGGAAACAGAGAAGGUGCUACAUUACCGGCAGUGAUGUUGCUGACC | 418 | 101 | 555 | 347 | 121
UUAGUCUAGAGAAGGAGCGAGUGAUGUUCGCAUGAUCUCAUGAUAUCAUGAGAUCGAAAUCCUCAGGUAGGUCGCUCUAGACAUU [AK6 Exc Arginine B] | 493 | 372 | 534 | 424 | 545
AUAGGAGUGAUGUUCCUUAGUUUCUCCGAUACCAGUAUGGAAACAUACCCUUGGCAGCGGUAAACCGCAGAUUAGGAAACUAGUC [Theophylline A K4 2] | 308 | 332 | 324 | 241 | 297
GAUACACUUUCAGGUAUCCAGUGACUGGAUACCAGCAUGGAAACAUGCCCUUGGCAGCCAGAACUGGAAGUGAUGUUUCCAGUAA [Design7] | 215 | 166 | 195 | 214 | 199
UUUGUAUCGGGAAGGAGCGUGAAUGAUAAUGGAUAUAGUGAUGUUAUAUAUAAGAACGAAUCACAGGUAGGUCGCCCGGAUGACU [SSArgB.P] | 546 | 566 | 648 | 586 | 678
AAGUGAUGUUGUAGUGAUGUUGUGAUGUUGCAGGAUAUAUAGUGAUGUAGAAGGGUAAGUACUGAUUUUUUUUUUGAGUGAUGUU [ccbyzrmullin] | 96.4 | 43 | 74.5 | 53.9 | 73.8
AAGUGUGUGGCGGCCGCCACUAGUAUCCAGUGAUGUUGGAGAUAUCACGUAAGUGAUAUCCUACAUAGGACCGGGCCAUAUAGAA [Same State - Tryptophan B (Freestyle 20)] | 392 | 391 | 337 | 540 | 510
UGAUACCAGACGGCCGCCACUCCUGCAGUCAAAGACUGCUAGGAAAUAUUCGUCCAGUGAUGUUGGAGGACCGGGUCUGGUAUCU [TrypBX 10 #SwitchBubble #Palindromic #StaticStem] | 791 | 600 | 740 | 633 | 894
UGUCAUUGGUCGGCCGCCACUUCGUGUGGAGUGAUGUUUUGUAGGACGGAUCGAAAGAUCUGUCGAAGGACCGGGACCGAUGACU [FiskerMod 19 - Jieux - Same State - Tryptophan B] | 96.8 | 85.8 | 87.6 | 33.5 | 285
GCCCUUCAGGUCGGAGUGAUGUUCCAAUGGAAGGAUAUCCGGGCUCGGAGAAGGUCCAAUUGUGUCUUGUUAAGGUGCUCACUAC [theeternabot_sameState_KL_FMN_A_46] | 251 | 221 | 215 | 203 | 223
CUUGCCCUUUCGGCCGCCACUCCGAGUGAUGUUGGGAUGUUCGGUGCAGCCAUUUAGAUGUCAGUGAGGACCGGGAAAUUAUGCG [theeternabot_exclusion_KL_Trp_B_9] | 220 | 128 | 251 | 150 | 196
CCAUAUUCGUCGGCCGCCACUAUAAGCCAUCAUACAUUGGCUCUGUGAAAGUGAUGUUUUCUUGAUAGGACCGGGACUGUCAGCA [theeternabot_sameState_KL_Trp_B_24] | 975 | 739 | 1020 | 903 | 646
AAUAAAAUCACGGCCGCCACUAAUGCUAGUAUUAGCAGUGAUGUUGCUAUGUAUAUUUUAUUUAAUAGGACCGGGUGAAUAUUUA [#23 K4 Tryptophan B Exclusion] | 332 | 294 | 346 | 308 | 224
GGCAGUGAUGUUGCCAGUGGCGGAUGCGAAGGAGCGCGGUGAGACGCAGGUAGGUCGCGCAUUGAAAUUGCUGUCACUAGGAUGC [whbob_Ex_Arginine_A_2t129] | 272 | 262 | 267 | 313 | 212
UGAUAGGACAGAAGGAGCGGGAGUGAUGUUCCCAAAAGGGUAAGGUGUCAAAAGACACCCUCCCAGGUAGGUCGCUGUCCUAUCU | 155 | 191 | 154 | 175 | 148
UGUCAUUGGUCGGCCGCCACUUCAGGUCAAAGACCAGAGUGAUGUUCUUGCACAAAGUGCUUAAGAAGGACCGGGACCGAUGACU [TrypBS 14 #SwitchBubble #K4Middle] | 256 | 53.5 | 63.3 | 69.5 | 1060
UGUACCGAGUAAGGAUAUGUCGUCGAAAGACGAAAUGGAGUGAUGUUCCUUAAACUGCGAAAGCAGACAGAAGGUACUUGGUACU [FmnBS 29 A11+U75] | 139 | 217 | 233 | 224 | 203
AAUUGGCAGUGAUGUUGUCAAGGACAUACGAAGGAUAUAAGUGAAGUUAGAAGGUCGACCAUCACUUCUUUGCCAUUUGCAUGAC [theeternabot_exclusion_KL_FMN_A_20] | 238 | 214 | 207 | 243 | 193

Sequence | apparent KD of K4 kissing-loop reporter (input ligand: FMN 200 uM) [nM] | apparent KD of K4 kissing-loop reporter (input ligand: arginine 13.2 mM) [nM] | apparent KD of K4 kissing-loop reporter (input ligand: none) [nM] | apparent KD of K4 kissing-loop reporter [1] [nM] | apparent KD of K4 kissing-loop reporter [2] [nM]
CGACCGGUAGCGGAUACCAGCCUUUGAGUGAUGUUCGAGUUGAGUUUCCGCGCGUCGAAAGGCCCUUGGCAGCCGAUACGCCUUC [theeternabot_exclusion_KL_Theo_B_14] | 236 | 192 | 207 | 187 | 188
CCCUCACGAGUGAUGUUCGUAGGGUACAGUCAGGAUAUCAUGCGGUUGAGAAGGGACAGAGAGGGCGGCGGCGGGUUGCUCUUCG [Xeaan] | 155 | 190 | 242 | 271 | 222
AAGCUCAGCGUGACUCGAUAAGAGUCACAACGAGGACCGGUACGGCCGCCACUCGAAAUAAGGGAGUGAUGUUCUCGCUGAGCAA [#SwitchBubble 5 #StaticStem #K4Late] | 348 | 134 | 291 | 364 | 587
CAGCAGAGUGAUGUUCUGCUUACUGCGGAUACCAGCUUUGCCAGAGGCCCUUGGCAGCCGGGCGGCUCAGUGAUGUUGGGUUGUU [Same State Theophylline A GF 14] | 234 | 140 | 186 | 208 | 167
AACACUCAACGGAGUGAUGUUCUGGAAAACCGAGGACCGGUACGGCCGCCACUCGGAAAUGAGUGAGUCCUACGAAAAGUAGGAC [Omei inspired 2] | 160 | 161 | 150 | 157 | 125
GUAGCACUCGAUAGUGAUGUUAUCGAGGGCAAGGAUAUCACCUCAGUGAGAAGGUGUCCUUGAUAACUGCUACGGGAAUAUCCCA [Omei KL FMN A Exc D v8] | 270 | 90.9 | 101 | 106 | 99.6
CAUAUUUCGGCGGCCGCCACUGACCAUAGCCUUCGAUGGCCAGUGAUGUUGGCCUCUGGCUCUAACAGGACCGGGCCGAAUUGUG [Uslaxe] | 239 | 137 | 198 | 145 | 116
UGUCAUUGGUCGGCCGCCACUAGGACCGGGUAUAACCCAGUGAUGUUGGUAAAUACGGCCGCCACUAGGACCGGGACCGAUGACU [TrypBS 14 #DoubleAptamer #SwitchBubble #K4Middle] | 263 | 233 | 255 | 280 | 173
GGUUGCAGCCCUGCAUCGUGGGUUUAGAGUAAGGAUAUUCGCCAAGGAAGAAGGUACUCUGCAUUGAGUGAUGUUCAAUAAGAUG [theeternabot_sameState_KL_FMN_A_30] | 109 | 176 | 146 | 166 | 104
GACACUCGGUGAUAAUAACCGUUACGCGAUACCAGCGUAACAGUACGCCCUUGGCAGCGCAGUGAUGUUGCGUGCCGAGUGUGAA [Theo A Ex Mod of Esbiceve] | 180 | 170 | 172 | 170 | 163
AAAAUAAACCAGUGAUGUUGGUGUCUGGAUACCAGCGACGAAAGUCGCCCUUGGCAGCUAUGGACGUACAAAAUAAGUACGUCCU [MatMod 7 - Jieux - Same State - Theophylline A] | 704 | 485 | 622 | 637 | 510
AAUACUAUCAGAAGGAGCGUGGAAUAUUCAUCUGUAUCUAAUACGAGUGAUGUUCGUAAUUCACAGGUAGGUCGCUGAUUAAUAA [whbob_Ex_Arginine_B_2th157] | 274 | 275 | 253 | 266 | 231
AAACAUCACUGGGAGUGAUGUUCUCAGUGACGAGGACCGGUACGGCCGCCACUCGCGAGAGAACUAGUCUAGACUUGACUGCAUU [Excl Tryptophan A V14] | 386 | 366 | 356 | 425 | 428
AUUCAUUUCAGAGGAUAUCGAAGGAGAGUGAUGUUCUCCCAUAGCCCAGUGAUGUUGGAAGCUAUUCGAGAAGGCUGUGGGUGGA [Same State FMN B GF 26] | 178 | 270 | 271 | 222 | 216
UUGUUUGGUUGAGAGGUUGGGCGAGAUGAUACCAGUAGAGAAGAAUACCCUUGGCAGCAUAAGAAAGAUAUAGUGAUGUUGUAUA [SSTheophA.O] | 538 | 356 | 490 | 529 | 475
GGACGAGUGAUGUUCGUUAUUAUGCAUUCAGAGGAUAUAGGAUUAGCUAGAAGGCUGAAUCAAUCUUCGAGUGAUGUUCGAGGAU [Same State FMN A GF 10] | 146 | 146 | 154 | 151 | 142
AAUGCAUAGUGAAGGAGCGCGAUAAGCAGUGAUGUUGCUUAGUUAUUAGUGUUUAUUUAUACGCAGGUAGGUCGCACUUUGCAUA [JR_ExcArginiB_Sub018] | 115 | 103 | 109 | 105 | 107
UGUCAUUGGUCUGAUACCAGAAGAAAUCUGGAGUGAUGUUCCGAGUACGACAAAAGUCGCUUCCCUUGGCAGCAGACCGAUGACU [TheoBS 22 #SwitchBubble 13 #StaticStem] | 235 | 198 | 198 | 161 | 207
GCAUCCGAUGCAGGAUAUAGAUGAACGAGUGAUGUUUGGAAUUUAUGUCCAAAGCCUACGAUCAGACUAGAAGGGCAUCGGAUGC | 147 | 75.4 | 122 | 197 | 164
CGUUGGAGUGAUGUUCCAGGUUGUACGGAUACCAGCCAAGCCAGCGGCCCUUGGCAGCCGACUAUUGCAGUGAUGUUGUGAUGCC [Same State Theophylline A GF 3] | 715 | 539 | 751 | 772 | 524
GGCAGAGCGCGAAGGAGCGCCCUGACAGGUUGCUGCCGUGGGCAGUGAUGUUGCUCAGUCCGGCAGGUAGGUCGCGUGCUCUGCC | 167 | 115 | 225 | 116 | 148
